Test [1] has as its target T1, C-reactive protein (CRP) (Homo sapiens, UniProt P02741).
T1 sequence (P02741 19-224): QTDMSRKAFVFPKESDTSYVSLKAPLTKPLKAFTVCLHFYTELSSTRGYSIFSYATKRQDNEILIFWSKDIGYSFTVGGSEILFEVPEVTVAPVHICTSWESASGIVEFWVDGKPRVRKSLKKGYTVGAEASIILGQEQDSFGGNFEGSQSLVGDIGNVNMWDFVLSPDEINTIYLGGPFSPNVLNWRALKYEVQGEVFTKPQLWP
The test is described as follows: Affinity measurements by surface plasmon resonance (Biacore T100, CRP immobilized on CM5 chip). It counts as binding. The settings on record: CRP immobilized approx. 5000 RU; peptide 5 micromolar down to 2 nM; 25° C.; FIG. 8A. Here is the method:
Affinity measurements. Affinity measurements were performed using a Biacore T100 system and research grade CM5 sensor chips (GE Heathcare). The instrument was primed with HBS-EP+ (GE Heathcare) buffer. Flow cell 1 (or 3) was used as a reference to subtract nonspecific binding, drift, and the bulk refractive index, while flow cell 2 (or 4) was immobilized with CRP following standard procedures. A 1:1 mixture of 0.4 M EDC and 0.1 M NHS was used to activate flow cell 2 (or 4), and 0.1 mg/mL CRP solution was injected. Blocking of the remaining activated groups was done with a 1 M solution of ethanolamine (pH 8.5). CRP was immobilized onto the sensor chip surface by approximately 5000 response units (RU). The instrument was then primed using running buffer (HBS-EP+). Each of the 6-mer ligand candidates identified were dissolved in HBS-EP+ buffer to produce 5 micromolar peptide stock solutions for each peptide, which were serially diluted by a factor of 2 to produce a concentration series down to 2 nM. For a given affinity measurement, these series of peptide solutions successively were injected into flow cell 2 (or 4) for 3 min of contact time, 5 min of dissociation time, and 3.5 min of stabilization time using a flow rate of 100 microliter/min at 25° C. Flow cell 2 (or 4) was regenerated by glycine 2.5 (GE Healthcare) after injection of each peptide solution.

For test [2], the target named is T1, C-reactive protein (CRP). The test can be described thus: Dot blot selectivity/sensitivity assay with biotinylated 6-mer peptides. It counts as binding. The settings on record: biotinylated 6-mer at 1 micromolar in 5% nonfat milk/TBS-T; CRP 20 micrograms to 2 ng per spot; FIG. 8B. The procedure: Dot blot selectivity/sensitivity assays in serum. […] CRP solution was prepared as 10 mg/mL stocks in PBS buffer (pH 7.4). A dilution series of CRP solution was applied to a nitrocellulose membrane, typically ranging from 20 micrograms to 2 ng per spot. The membrane was blocked at room temperature for 2 h in 5% nonfat milk/TBS-T. The membrane was then washed with TBS-T. The biotinylated 6-mer solution was prepared at 1 micromolar in 5% nonfat milk/TBS-T and incubated over the membrane for 2 h at room temperature. After washing three times with TBS-T for 10 min, 1:3000 streptavidin-HRP (Abeam) prepared in 0.5% milk/TBS-T was added to the membrane and incubated for 2 h. After washing three times with TBS-T for 10 min, the membrane was treated with chemiluminescent reagents (Amersham ECL plus Western blotting detection reagents, GE Healthcare) and then immediately developed on film.

As to “LYFRRW (Synthetic Peptide Fragment) [6-mer CRP ligand candidate from focused library B screening]”, the “binding affinity to CRP / response in SPR” value with C-reactive protein (CRP) [1] is listed as “highest response”. The “binding affinity to CRP / response in dot blot” value in the test with C-reactive protein (CRP) [2] is listed as “highest response”.
“WKFRYK (Synthetic Peptide Fragment) [6-mer CRP ligand candidate from focused library A screening]”: the “binding affinity to CRP / response in SPR” value with C-reactive protein (CRP) [1] is “highest response”. Further, in the test with C-reactive protein (CRP) [2], the “binding affinity to CRP / response in dot blot” value is given as “highest response”.

Values taken from patent publication US20130267423A1, “PEPTIDE LIBRARIES FOR SCREENING AND OTHER APPLICATIONS” (priority 2010, published 2013).
